Data from patent US20180194839A1 (Novartis, published 2018).
Where a chain is given by its changes, count along the chain named. Numbers in names are those of the source. Read-outs that look alike come from different tables or passages of the source. Blank lines part the entries; values can stand above or below the binder they belong to.

Experiments:
[1] = target: T1, human IL-17A (construct not stated) (human, UniProt Q16552 24-155, limits assumed); assay: cell-based or functional assay
T1 sequence: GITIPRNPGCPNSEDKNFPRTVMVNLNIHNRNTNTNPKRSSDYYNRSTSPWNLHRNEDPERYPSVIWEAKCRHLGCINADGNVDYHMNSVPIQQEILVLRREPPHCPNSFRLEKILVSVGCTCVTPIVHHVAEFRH

[2] = target: T2, recombinant human IL-17A (SEQ ID NO: 76) (human, UniProt Q16552 24-155, limits assumed); assay: cell-based or functional assay
T2 sequence: T1 sequence

[3] = target: T2, recombinant human IL-17A (SEQ ID NO: 76); assay: cell-based or functional assay; remark: listed apart in the source
[4] = target: T3, recombinant mouse IL-17A (SEQ ID NO: 83) (mouse, UniProt Q62386 26-158); assay: cell-based or functional assay
T3 sequence: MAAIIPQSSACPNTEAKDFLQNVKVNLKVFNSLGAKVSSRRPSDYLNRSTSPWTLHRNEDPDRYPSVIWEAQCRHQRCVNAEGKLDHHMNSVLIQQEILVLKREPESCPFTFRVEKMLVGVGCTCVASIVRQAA

[5] = target: T4, recombinant human IL-17A (SEQ ID NO: 78) (human, UniProt Q16552 24-155, limits assumed); assay: SPR (Biacore), captured antibody, antigen as analyte
T4 construct: homodimer; also called huIL-17A; hulL-17A
T4 sequence: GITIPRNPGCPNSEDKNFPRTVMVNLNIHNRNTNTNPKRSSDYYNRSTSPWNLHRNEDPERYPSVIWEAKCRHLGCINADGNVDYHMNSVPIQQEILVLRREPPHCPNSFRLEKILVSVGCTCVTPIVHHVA

[6] = target: T1, human IL-17A (construct not stated); assay: ELISA on coated huIL-17A, crude Fab extract
[7] = target: T1, human IL-17A (construct not stated); assay: ELISA on coated huIL-17A, crude Fab extract, wash of at least 3 h
[8] = target: T1, human IL-17A (construct not stated); assay: ELISA on coated huIL-17A, crude Fab extract, overnight with 200 nM XAB1 Fab as competitor
[9] = target: T1, human IL-17A (construct not stated); assay: ELISA titration of purified Fab on plate-coated huIL-17A, normalized signal; x axis printed as log10 of Fab concentration (M)
[10] = target: T4, recombinant human IL-17A (SEQ ID NO: 78); assay: SPR (Biacore), captured antibody, antigen as analyte; remark: listed apart in the source
[11] = target: T5, recombinant human IL-17A/F heterodimer (human, UniProt Q16552 24-155; Q96PD4 31-163, limits assumed); assay: as above
T5 construct: heterodimer of an IL-17A subunit and an IL-17F subunit; also called huIL-17A/F; rhuIL-17A/F
T5 sequence (looked up) 1: T4 sequence
T5 sequence (looked up) 2: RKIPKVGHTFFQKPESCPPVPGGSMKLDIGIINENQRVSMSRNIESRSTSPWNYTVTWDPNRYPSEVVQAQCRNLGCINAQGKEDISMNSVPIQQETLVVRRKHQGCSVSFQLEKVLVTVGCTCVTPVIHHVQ

[12] = target: T6, recombinant cynomolgus IL-17A (SEQ ID NO: 79) (cynomolgus monkey, UniProt Q16552 24-155 (human entry), limits assumed); assay: as above
T6 construct: also called cynoIL-17A; cyno IL-17A
T6 chain: T4 sequence with T3A, P8S, N34S, I77V, N78K, P104R

[13] = target: T3, recombinant mouse IL-17A (SEQ ID NO: 83); assay: as above
[14] = target: T7, recombinant rat IL-17A (SEQ ID NO: 85) (rat, UniProt Q61453 18-150); assay: as above
T7 construct: also called rratIL-17A; rIL-17A
T7 sequence: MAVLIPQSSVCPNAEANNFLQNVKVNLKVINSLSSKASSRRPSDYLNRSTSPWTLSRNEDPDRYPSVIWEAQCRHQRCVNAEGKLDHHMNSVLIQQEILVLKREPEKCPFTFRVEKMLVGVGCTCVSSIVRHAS

- EC50, in vitro neutralization activity, T = 0 weeks [1]: 45 ng/mL
- EC50, in vitro neutralization activity, T = 4 weeks at pH 8, 40°C (forced deamidation) [1]: 47 ng/ml
- IC50, huIL-6 secretion by BJ cells; stimulus rhuIL-17A (0.5 nM) [2]: 0.64 nM
- IC50, huGROα secretion by BJ cells; stimulus rhuIL-17A (0.5 nM) [3]: 0.4 nM
- IC50, KC secretion by CMT-93 cells; stimulus mIL-17A (0.15 nM) [4]: 20.9 nM
- Kd [5]: 0.0176 nM
- koff [5]: 7.12e-05 s⁻¹
- kon [5]: 4.09e+06 M⁻¹ s⁻¹
B1: XAB2 (antibody, human IgG1, kappa, V domains shown)
VH: EVQLVESGGDLVQPGGSLRLSCAASGFTFSSYWMSWVRQAPGKGLEWVANIKQDGSEKYYVDSVKGRFTISRDNAKNSLYLQMNSLRAEDTAVYYCARDRGSLYYWGQGTLVTVSS
VL: AIQLTQSPSSLSASVGDRVTITCRPSQVIISALAWYQQKPGKAPKLLIYDASSLEQGVPSRFSGSVSGTDFTLTISSLQPEDFATYYCQQFDSYPLTFGGGTKVEIKR

- Classic ELISA (normalized to XAB1 Fab) [6]: 3.2 ratio to XAB1 Fab
- Off-rate ELISA (normalized to XAB1 Fab) [7]: 48.9 ratio to XAB1 Fab
- Competition ELISA (normalized to XAB1 Fab) [8]: 52.4 ratio to XAB1 Fab
- EC50 (read off the curve) [9]: ~2 nM
B2: MB444 (Fab, V domains shown)
VH: B1 VH
VL: AIQLTQSPSSLSASVGDRVTITCRPSQGILWELAWYQQKPGKAPKLLIYDASSLENGVPSRFSGSGSGTDFTLTISSLQPEDFATYYCQQFNSYPLTFGGGTKVEIK
notes: heavy chain C-terminal Flag tag

- Classic ELISA (normalized to XAB1 Fab) [6]: 2.8 ratio to XAB1 Fab
- Off-rate ELISA (normalized to XAB1 Fab) [7]: 52.5 ratio to XAB1 Fab
- Competition ELISA (normalized to XAB1 Fab) [8]: 54 ratio to XAB1 Fab
- EC50 (read off the curve) [9]: ~0.6 nM
B3: MB440 (Fab, V domains shown)
VH: B1 VH
VL: B2 VL with E32Q
notes: as for B2

- EC50, in vitro neutralization activity, T = 0 weeks [1]: 45 ng/mL
- EC50, in vitro neutralization activity, T = 4 weeks at pH 8, 40°C (forced deamidation) [1]: 61 ng/ml
- IC50, huIL-6 secretion by BJ cells; stimulus rhuIL-17A (0.5 nM) [2]: 0.54 nM
- IC50, huGROα secretion by BJ cells; stimulus rhuIL-17A (0.5 nM) [3]: 0.46 nM
- IC50, KC secretion by CMT-93 cells; stimulus mIL-17A (0.15 nM) [4]: 7.8 nM
B4: XAB5 (antibody, human IgG1, kappa, V domains shown)
VH: B1 VH
VL: B1 VL with V28G, I30N, S31W, A32E, Q56N, V66G, D92N

- Classic ELISA (normalized to XAB1 Fab) [6]: 2.8 ratio to XAB1 Fab
- Off-rate ELISA (normalized to XAB1 Fab) [7]: 43.9 ratio to XAB1 Fab
- Competition ELISA (normalized to XAB1 Fab) [8]: 60 ratio to XAB1 Fab
- EC50 (read off the curve) [9]: ~2 nM
B5: MB468 (Fab, V domains shown)
VH: B1 VH
VL: B2 VL with L30Y
notes: heavy chain C-terminal Flag tag; with N56Q formatted to IgG as XAB3

- Classic ELISA (normalized to XAB1 Fab) [6]: 2.7 ratio to XAB1 Fab
- Off-rate ELISA (normalized to XAB1 Fab) [7]: 34.2 ratio to XAB1 Fab
- Competition ELISA (normalized to XAB1 Fab) [8]: 31.6 ratio to XAB1 Fab
- EC50 (read off the curve) [9]: ~3 nM
B6: MB463 (Fab, V domains shown)
VH: B1 VH
VL: B2 VL with L30Y, W31F
notes: as for B2

- Classic ELISA (normalized to XAB1 Fab) [6]: 2.7 ratio to XAB1 Fab
- Off-rate ELISA (normalized to XAB1 Fab) [7]: 34.9 ratio to XAB1 Fab
- Competition ELISA (normalized to XAB1 Fab) [8]: 36.9 ratio to XAB1 Fab
- EC50 (read off the curve) [9]: ~2 nM
B7: MB464 (Fab, V domains shown)
VH: B1 VH
VL: B2 VL with L30I, W31Y, E32Q
notes: 30 stays I); heavy chain C-terminal Flag tag

- EC50, in vitro neutralization activity, T = 0 weeks [1]: 40 ng/mL
- EC50, in vitro neutralization activity, T = 4 weeks at pH 8, 40°C (forced deamidation) [1]: 40 ng/ml
- IC50, huIL-6 secretion by BJ cells; stimulus rhuIL-17A (0.5 nM) [2]: 0.5 nM
- IC50, huGROα secretion by BJ cells; stimulus rhuIL-17A (0.5 nM) [3]: 0.42 nM
- IC50, KC secretion by CMT-93 cells; stimulus mIL-17A (0.15 nM) [4]: < 1 nM
- Kd [10]: 9.58 pM
- koff [10]: 5.01e-05 s⁻¹
- kon [10]: 5.48e+06 M⁻¹ s⁻¹
- Kd [11]: 0.0329 nM
- koff [11]: 0.000103 s⁻¹
- kon [11]: 3.37e+06 M⁻¹ s⁻¹
- Kd [12]: 0.0349 nM
- koff [12]: 4.23e-05 s⁻¹
- kon [12]: 1.21e+06 M⁻¹ s⁻¹
- Kd [13]: 0.174 nM
- koff [13]: 0.000101 s⁻¹
- kon [13]: 587000 M⁻¹ s⁻¹
- Kd [14]: 0.0826 nM
- koff [14]: 7.59e-05 s⁻¹
- kon [14]: 905000 M⁻¹ s⁻¹
B8: XAB3 (antibody, human IgG1, kappa, V domains shown)
VH: B1 VH
VL: B1 VL with V28G, I30Y, S31W, A32E, V66G, D92N
notes: also called MB468 N56Q
